Target: T1, GAL4-Rb fusion protein (pBIND-Rb) (UniProt P06400 1-928)
T1 construct: source: HEK293T, transiently transfected, mammalian two-hybrid fusion
T1 sequence (looked up): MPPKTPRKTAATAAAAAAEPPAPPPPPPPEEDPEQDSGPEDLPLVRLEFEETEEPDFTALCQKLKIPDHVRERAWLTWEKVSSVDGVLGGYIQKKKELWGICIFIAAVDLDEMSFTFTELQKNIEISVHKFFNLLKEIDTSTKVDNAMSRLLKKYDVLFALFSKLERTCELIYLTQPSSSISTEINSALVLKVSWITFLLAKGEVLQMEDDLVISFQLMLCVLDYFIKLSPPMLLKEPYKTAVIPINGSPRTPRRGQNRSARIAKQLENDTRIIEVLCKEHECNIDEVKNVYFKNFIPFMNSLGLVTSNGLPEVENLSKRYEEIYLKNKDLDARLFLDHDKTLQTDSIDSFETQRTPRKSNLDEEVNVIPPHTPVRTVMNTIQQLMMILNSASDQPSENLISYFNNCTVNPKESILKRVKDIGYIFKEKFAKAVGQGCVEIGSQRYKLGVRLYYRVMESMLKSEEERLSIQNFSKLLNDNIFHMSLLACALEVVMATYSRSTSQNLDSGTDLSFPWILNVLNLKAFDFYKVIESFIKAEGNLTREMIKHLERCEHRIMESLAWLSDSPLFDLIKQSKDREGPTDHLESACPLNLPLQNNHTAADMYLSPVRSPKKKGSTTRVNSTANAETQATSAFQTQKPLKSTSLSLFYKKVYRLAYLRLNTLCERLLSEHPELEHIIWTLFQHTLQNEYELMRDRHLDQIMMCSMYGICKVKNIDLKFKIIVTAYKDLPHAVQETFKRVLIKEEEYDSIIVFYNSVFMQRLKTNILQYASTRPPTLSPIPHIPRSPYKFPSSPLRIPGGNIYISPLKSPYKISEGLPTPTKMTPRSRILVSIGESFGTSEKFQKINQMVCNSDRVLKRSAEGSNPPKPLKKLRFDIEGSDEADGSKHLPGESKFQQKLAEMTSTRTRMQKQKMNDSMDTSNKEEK
Test: two-hybrid; mammalian two-hybrid in HEK293T: pBIND (GAL4 DNA-binding domain) and pACT (VP16 activation domain) fusions with pG5luc reporter; luciferase read 48 h after transfection; negative controls pBIND and pACT vectors
Details: partners not purified

B1: VP16-SLPI fusion protein (pACT-SLPI) (natural protein, UniProt P03973 1-132, looked up)
chain: MKSSGLFPFLVLLALGTLAPWAVEGSGKSFKAGVCPPKKSAQCLRYKKPECQSDWQCPGKKRCCPDTCGIKCLDPVDTPNPTRRKPGKCPVTYGQCLMLNPPNFCEMDGQCKRDLKCCMGMCGKSCVSPVKA
notes: the legend names only pACT constructs of both; source: HEK293T, transiently transfected, mammalian two-hybrid fusion
  fold activation of the reporter over the negative controls: ~7 times

— publication PMC5752445, “Secretory leukocyte protease inhibitor (SLPI) as a potential target for inhibiting metastasis of triple-negative breast cancers” (Oncotarget, 2017)
